Measured values: patent publication US8598081B2, “Specific delivery of agrochemicals” (priority 2010, dated 2013)

What was measured:
potato lectin [1] = target: T1, potato lectin (Solanum tuberosum, UniProt Q9S8M0); assay: ELISA-like assay, microcapsules with monovalent or bivalent VHH, potato lectin; assay type: binding; set-up: Surface area of bound microcapsules: unit not given here
T1 construct: purchased Sigma
T1 sequence (Q9S8M0 whole entry, looked up): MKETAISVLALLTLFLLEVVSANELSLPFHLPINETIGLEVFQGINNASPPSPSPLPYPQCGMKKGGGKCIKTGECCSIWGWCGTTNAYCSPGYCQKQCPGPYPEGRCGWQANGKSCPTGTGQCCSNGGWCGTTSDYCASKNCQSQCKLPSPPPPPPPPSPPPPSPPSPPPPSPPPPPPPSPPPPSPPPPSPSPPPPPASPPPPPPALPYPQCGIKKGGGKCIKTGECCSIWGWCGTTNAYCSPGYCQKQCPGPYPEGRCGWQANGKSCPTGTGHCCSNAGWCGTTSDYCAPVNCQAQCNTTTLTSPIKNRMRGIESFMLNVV
From the text: (§1) Bivalent VHH constructs were produced in bacteria by cloning two VHH sequences in tandem into the pASF22 vector, creating a fusion of two VHH with a 9 glycine-serine linker (GGGGSGGGS (SEQ ID NO:50)) in between the two VHH. pASF22 is an in-house produced pMES derivative. The tags that were used were C-terminal c-Myc (EQKLISEEDLN (SEQ ID NO:51)) and hexahistidine (HHHHHH (SEQ ID NO:52)). A triple alanine linker (AAA) was placed in between the C-terminal end of the VHH and the c-Myc tag and a glycine-alanine-alanine (GAA) linker was used in between the C-terminal end of the c-Myc tag and the hexahistidine tag. The complete sequence C-terminal of the bivalent VHH that was used: AAA-EQKLISEEDLN-GAA-HHHHHH (SEQ ID NO:53). Fresh overnight cultures were produced by starting from colony streaks and inoculation of 2×TY media supplemented with 2% glucose and 100 μg/ml ampicillin. The overnight cultures were used to inoculate fresh cultures 1:100 in 2×TY media with 0.1% glucose and 100 μg/ml ampicillin. After growing at 37° C. in a shaking incubator for 3 hours, IPTG was added to a 1 mM final concentration and recombinant bivalent VHH were produced during an additional incubation for 4 hours. Cells were spun down and resuspended in 1/50th of the original culture volume of PBS and incubated with head-over-head rotation at 4° C. for 30 minutes. Spheroplasts were spun down by centrifugation at 3,000 g and 4° C. for 20 minutes. Supernatants were transferred to fresh tubes and centrifuged again at 3,000 g and 4° C. for 20 minutes. The supernatant was collected and sodium chloride concentration was adjusted to 500 mM and imidazole concentration to 20 mM. Hexahistidine-tagged bivalent VHH were purified from the extracts using HisTrap FF Crude 5 ml IMAC columns (GE Lifesciences) and HiLoad 16/60 Superdex 75 prep grade gel filtration column (GE Lifesciences) on an AKTAxpress system (GE Lifesciences) following standard procedures.
(§2) Next, it was investigated if binding of microcapsules to surfaces could be improved by using targeting agents comprising multivalent VHH. A series of parallel couplings was performed with equal amounts of monovalent VHH, bivalent VHH, and unrelated VHH. Success of coupling of VHH and multivalent VHH were analyzed as described in Example 4. An ELISA-like assay was performed using high bind half area microplates (Greiner Bio-One) coated with 5 μg/well potato lectin. Control wells included blank wells or wells coated with unrelated antigens. Plates were washed three times with PBS with 0.05%-TWEEN®-20 and blocked with 5% skimmed milk in PBS for 1 to 2 hours. VHH-coupled Uvitex-containing microcapsules were diluted to appropriate densities in 1% skimmed milk in PBS with 0.05%-TWEEN®-20. Five-fold serial dilution series were prepared and allowed to bind to the surface to compare binding of microcapsules coupled with monovalent or bivalent VHH. Microcapsules were added to the antigen-coated or control wells and allowed to bind for 1 hour. Unbound microcapsules were removed by washing five times with PBS with 0.05%-TWEEN®-20. The bottoms of ELISA plate wells were analyzed for bound microcapsules on a macrozoom microscope system (Nikon). Microcapsules were counted using Volocity image analysis software (Perkin Elmer). A DAPI filter was used to visualize Uvitex microcapsules. […] The surface area of microcapsules with coupled bivalent VHH was 15-fold above the surface area of blank microcapsules applied at this microcapsule density while the surface area of microcapsules with monovalent VHH was only six-fold above the surface area of blank microcapsules applied at this microcapsule density. This difference could be explained by an increase in binding strength due to additional avidity of the bivalent VHH compared to monovalent VHH, it could also be that the use of bivalent VHH increases flexibility and spacer length of the coupled targeting agents on microcapsules, or a combination of both.

[2] = ELISA-like assay, microcapsules with monovalent or bivalent VHH, unrelated antigen; assay type: binding; set-up: unit not given beside the values; conditions: Uvitex microcapsules
From the text: as §1, §2

gum arabic = assay: VHH binding to gum arabic in ELISA; set-up: species or system acacia tree
Experimental: Titration of VHH antibody fragments was performed on ELISA plates (Maxisorp, Nunc) coated with 100 μl per well 100 μg/ml gum arabic in 50 mM carbonate pH 9.6. Plates were coated at 4° C. overnight and coating was continued at room temperature for 1 hour on the next day. Plates were washed three times with PBS/0.05%-TWEEN®-20 and blocked with 5% skimmed milk in PBS for 1 hour. Four-fold serial dilutions of purified VHH antibody fragments were prepared in 1% MPBS/0.05%-TWEEN®-20 in polypropylene 96-well plates. Antibody concentrations ranged from 3 μg/ml to 12 ng/ml. Antibody dilutions were transferred to the gum arabic-coated plates and VHH antibody fragments were allowed to bind for 1 hour at room temperature. Bound VHH were detected with sequential incubations with monoclonal mouse anti-histidine antibodies (Abd Serotec) and rabbit anti-mouse IgG whole molecule antibodies conjugated with alkaline phosphatase (RaM/AP) (Sigma) in 1% MPBS/0.05%-TWEEN®-20. Unbound antibodies were removed by washing three times with PBS/0.05%-TWEEN®-20 after each antibody incubation. The plates were washed an additional two times with PBS and 100 μl pNPP disodium hexahydrate substrate (Sigma) was added to each well. The absorbance at 405 nm was measured and plotted as function of antibody concentration (see Table 1).

potato lectin [3] = target: T1, potato lectin; assay: VHH binding to potato lectin in ELISA; conditions: Table 2; Blank (no antigen coating); VHH 3 μg/ml
Experimental: ELISA plates (Maxisorp, Nunc) coated with 100 μl per well 100 μg/ml potato lectin (Sigma) in PBS were coated at 4° C. overnight and coating was continued at room temperature for 1 hour on the next day. Plates were washed three times with PBS/0.05%-TWEEN®-20 and blocked with 5% skimmed milk in PBS for 1 hour. VHH (3 μg/ml) were transferred to the potato lectin-coated plates and VHH antibody fragments were allowed to bind for 1 hour at room temperature. Bound VHH were detected with sequential incubations with monoclonal mouse anti-histidine antibodies (Abd Serotec) and rabbit anti-mouse IgG whole molecule antibodies conjugated with alkaline phosphatase (RaM/AP) (Sigma) in 1% MPBS/0.05%-TWEEN®-20. Unbound antibodies were removed by washing three times with PBS/0.05%-TWEEN®-20 after each antibody incubation. The plates were washed an additional two times with PBS and 100 μl pNPP disodium hexahydrate substrate (Sigma) was added to each well and the absorbance at 405 nm was measured (see Table 2).

[4] = [VHH] 3 μg/ml (200 nM), gum arabic − (well without gum arabic)
[5] = Table 2, gum arabic coating, VHH 3 μg/ml

Molecule | absorbance at 405 nm (gum arabic; [4]) | absorbance at 405 nm (gum arabic; [5]) | absorbance at 405 nm (potato lectin [3]) | further results
Bivalent VHH 3E6: Uvitex-containing microcapsules coupled with bivalent VHH, a fusion of two VHH with a 9 glycine-serine linker (conjugate) QVQLQESGGGLVQPGGTLSLSCAASGFNVRWYGMGWFRQAPGKEREGVACISALQETTAYADSVKGRFTLSRDNPKNTLSLQMNNLQPEDTGVYYCATTDCDDSSRMTYTSYLGQGTQVTVSSGGGGSGGGSQVQLQESGGGLVQPGGTLSLSCAASGFNVRWYGMGWFRQAPGKEREGVACISALQETTAYADSVKGRFTLSRDNPKNTLSLQMNNLQPEDTGVYYCATTDCDDSSRMTYTSYLGQGTQVTVSSAAAEQKLISEEDLNGAAHHHHHH | – | – | – | more microcapsules retained in the well compared to microcapsules with monovalent VHH (potato lectin [1]; application of 25-fold less microcapsules, potato lectin): 160%; more microcapsules retained in the well compared to microcapsules with monovalent VHH (potato lectin [1]; highest density of microcapsules applied (fully cover the bottom of the well), potato lectin): 17%; Surface area of bound microcapsules (potato lectin [1]; no coating (first series, with potato lectin rows), surface coverage 100%, Uvitex microcapsules): 66.176; binding to antigen-coated surface when coupled to a microcapsule (potato lectin [1]; potato lectin 5 μg/well, Uvitex microcapsules): capable of binding specifically; Surface area of bound microcapsules (potato lectin [1]; potato lectin, surface coverage 4%, Uvitex microcapsules): 155.759; Surface area of bound microcapsules (potato lectin [1]; potato lectin, surface coverage 20%, Uvitex microcapsules): 511.303; Surface area of bound microcapsules (potato lectin [1]; potato lectin, surface coverage 100%, Uvitex microcapsules): 490.546; Surface area of bound microcapsules ([2]; no coating (second series, with unrelated antigen rows), surface coverage 100%): 55.841; Surface area of bound microcapsules ([2]; unrelated antigen, surface coverage 20%): 22.114; Surface area of bound microcapsules ([2]; unrelated antigen, surface coverage 100%): 45.677
VHH7C2: VHH sequence; SEQ ID NO:27 by order of the list (protein, listed as Lama glama, 7C2) VHH: QVQLQESGGGLVQPGGSLRLSCAAFGFALANYGIGWFRQAPGKDRERVSCDSVDDGSTHYSNSVQGRFTIIRDNAKNTVFLQMNSLKAEDTAVYYCATTDCDATTWGTWINYRGQGTQVTVSS | 0.077 | – | – | –
VHH7A2: VHH sequence; SEQ ID NO:26 by order of the list (protein, listed as Lama glama, 7A2) VHH: QVQLQESGGGSVHPGGSLTLSCLASGFSLSNYGMGWFRQAPGKEREAVSCTSVPNGHIYYAESVKGRFTIVRDNAGNSVYLQMNSLKPEDAANYFCATTDCEAAHWGTWVNYYGQGTQVTVSS | 0.075 | – | – | –
VHH5F5: VHH sequence; SEQ ID NO:22 by order of the list (protein, listed as Lama glama, 5F5) VHH: QVQLQESGGGLVQPGGSLRLSCAASGFPLGLYGIGWFRQAPGKEREAVSCDSVDDGSTNYLDSVKGRFTISRDNAKNMVYLQMNSLKPEDTAVYYCATTDCDAKAWGTWTNYRGQGTQVTVSS | 0.090 | – | – | –
VHH 5C4: VHH sequence; SEQ ID NO:18 by order of the list (protein, listed as Lama glama, 5C4) VHH: QVQLQESGGGLVQPGGSLRLSCAASGFSLRYFGIGWFRQVAGKEREPVSCSNVRDGNTYYADSVKGRFTISRDNVRNTLYLQMNSLKPEDTAVYSCATTDCEATTWGTYRGYFGQGTQVTVSS | 0.082 | 0.873 | 0.071 | –
VHH 5G5: VHH sequence; SEQ ID NO:24 by order of the list (protein, listed as Lama glama, 5G5) VHH: QVQLQESGGGLVQPGGSLRLSCAASGFSLRYFGIGWFRQAAGKEREGISCSNVRDGNTYYADSVKGRFTISRDNVRNMLYLQMNNLKPDDTAVYSCATTDCEATTWGTYRGYFGQGTQVTVSS | 0.077 | 0.751 | 0.073 | –
VHH5E5: VHH sequence; SEQ ID NO:21 by order of the list (protein, listed as Lama glama, 5E5) VHH: QVQLQESGGGLVQPGGSLTLSCTASGFAMRRFGIGWFRQVVGKEREGVSCSNVHDGSTYYANYVKGRFTIVRDDTKNMLYLHMNSLRAEDTGVYSCATTDCEATAWGTYRGYFGQGTQVTVSS | 0.073 | – | – | –
VHH 7D2: VHH sequence; SEQ ID NO:28 by order of the list (protein, listed as Lama glama, 7D2) VHH: QVQLQESGGGLVQPGRSLKVACAAAGFSLRYYGIGWFRQAPGKEREAVSCTSANDGSTYYRDSVRGRFTISRDDGKNTVYLQMNRLKPEDTAVYYCATTDCDATSWGTWINYYGQGTQVTVSS | 0.074 | 0.274 | 0.072 | –
